Measured values published in the DeepSol protein solubility set.

Experiment: soluble on expression in E. coli; label from the status in PepcDB or PDB records
For “GMTRTMSFHKNCELCTTAGGEILWQDALCRVVHVENQDYPGFCRVILNRHVKEMSDLRPAERDHLMLVVFAVEEAVREVMRPDKINLASLGNMTPHVHWHVIPRFKRDRHFPNSVWGETKRESLPQALDQGSTTALKKAISVRLDQGEPVFMGM”, the “soluble on expression in E. coli” value was “soluble”.
For “QVQLLESGPELVEPGASVKVSCKASAYSITDFNIYWVKQSHGKNLEWIGGIDPHNGGPVYNQKFNGKATLTVDKSSSTAFMHLNSLTSEDSAVYYCAIFYGNFFDYWGPGTTVTVSSASTKGPSVFPLAPSSKSTSGGTAALGCLVKDYFPEPVTVSWNSGALTSGVHTFPAVLQSSGLYSLSSVVTVPSSSLGTQTYICNVNHKPSNTKVDKKVEPKSCDKTHT”, the “soluble on expression in E. coli” value was “soluble”.
In the case of “MGSDKIHHHHHHMKYSLGPVLYYWPKETLEDFYQQAANCSADTIYLGEAVCSKRRATKVGDWIEMAKTLAASGKQIVLSTLALVQASSELGELKRYVDNGEFLIEASDLGVVNLCAERKLPFVAGHALNCYNAVTLRLLRKQGMVRWCMPVELSRDWLANLLTQCEELGIRNQFEVEVLSYGHLPLAYSARCFTARSEDRPKDECETCCIKYPTGRSMLSQENQQVFVLNGIQTMSGYVYNLGNELTSMHGLVDMVRLSPMGNETFAMLEAFRANENGAAPLDLTSNSDCNGYWKRLPGLVLHA”, the “soluble on expression in E. coli” value is reported as “not soluble”.
For “AHHHHHHGSNAVEIISREISPTLDIQTKILEYMTDFFVKEGFKWLLPVIISPITDPLWPDPAGEGMEPAEVEIYGVKMRLTHSMILHKQLAIAMGLKKIFVLSPNIRLESRQKDDGRHAYEFTQLDFEVERAKMEDIMRLIERLVYGLFRKAEEWTGREFPKTKRFEVFEYSEVLEEFGSDEKASQEMEEPFWIINIPREFYDREVDGFWRNYDLILPYGYGEVASGGEREWEYEKIVAKIRKAGLNEDSFRPYLEIAKAGKLKPSAGAGIGVERLVRFIVGAKHIAEVQPFPRIPGIPAVI”, the “soluble on expression in E. coli” value was “soluble”.
With “MMKDAVVITVGNEVLKGRTVNTNASFIGNFLTYQGYRVKLGLTVMDDLEDISWAFKTAMDRGDVIVSSGGLGPTFDDMTVEGFAKAIGSDNKLNQDALAMIEEKYKNIEITPERKKMAMMPEVCKPIRNPVGTAPGLLCSVGGKKVVILPGVPMEMQALLESMRDSLAIENSCYFDESINITGIMESTFAPYVERVMREVDGVYVKSHPKNIEVVNPSLEIEVSAYDVSQEAARKKVKDAIARIRAYAETILDSKDK” the “soluble on expression in E. coli” value was “not soluble”.
With “MMISLYSAATGMSAQQFKLDTIANNLANVDTTGYKKVRAEFQDLLYQYVKNAGTPTAATSSLPTGLYVGHGVRTAATTRIFTLGNFEQTGNALDLAIAGDGFFQIQLQDGRIAYTRDGSFKMDSEGRIVTSNGLLLVPEITIPENAVSINVSPDGIVSAELQDGTIQELGTITLVRFVNPSGLKSIGDNLYIATPASGDPIEGVPGQDGFGAIKQGFLEKSNVDVVREMVDMITAQRAYEFNSRVIQTADEMLRTATNVKR” the “soluble on expression in E. coli” value was “soluble”.
For “MAHHHHHHMRHLYGPAPGCVLLSFDFNQMELRVLAHLSGDELLIKHLSSEYDVLSAMTRHITGLSDDEQVPPHLRETVKVVVYGLFYGMGLATMKERVKILMDSAHSVPSSQRKFTADTLLRAFHQRYPAAGKFLTRARIRAFHEARCVTLTGINDLSSEKDGNRRRQHSIARILQGSSSTLFQSAMVKVHERRHDIVPNLPAAPFALVLCIHDELIYSVVEGYVDVVARKIKGIMVEQAQVFSLRVPLRVSVKVGKTFGSLEKLDVP”, the “soluble on expression in E. coli” value was “soluble”.
For “MKTSSYLLKAGVDYPTNWDEFVDWFHDEQSCTSYLYALRWPNGFICPSCSSHQSPYQLSNGKLKCHACRFQCSVTSSTLFDKTRTPMKSWFAAVWFITNQKNGVSALGVQRLLGLGSYQTAWSLMHKLRYAMVDPERDKLSGIVEVDETLIGGVIPKSSIKNQQGKRKAIVLVAVELLSPSGFGRIRLRQVESATKEHIHQFIQDVIEPGSTICSDGSQAYKQIDKKGYKHNRMVHLGSSVPAHETMAGVHRVSSLCKRWLLGTYQGAVKAKQLDYYLDEFTFRFNRRKSDSRGLLFYRLLEQAVRLEHHHHHH”, the “soluble on expression in E. coli” value was “soluble”.
In the case of “MGSDKIHHHHHHMFQLHHKLAADSFLVGDFPLSTCRLINDCQFPWLILVPRVSGIKELYELSEADQTQFLRESSWLSSQLAKTFQADKMNVAALGNQVPQLHFHHIVRYQNDMQWPNPVWGIPAVPYSKEVLAQMQQTLMMALRGHHQMPFDWQM”, the “soluble on expression in E. coli” value is reported as “not soluble”.
In the case of “MDRRIAMSLQVLGAGLGRTGTLSLKFALEHLGFGPCYHATEVAANMRTALPLWNAAERGAADWSAIFAGYRSSTDHPGCYYWRQLIEVYPQAKVVLTVRDPDSWFESVTQTILMPGRKSTFVGPEGETFSTFLKQQMGGRSQDRAFMVDYFNRWNQAVIDAVPSDRLLVFSSRQGWAPLCGFLSVPVPHKPYPHLHARPRLRWFTRGLRLPDDVAARERHVREYLQYLREDLFGLEHHHHHH”, the “soluble on expression in E. coli” value is reported as “soluble”.
In the case of “ASMTGGQQMGRGSGSEFMENETHYAEAVIDNGAFGTRTIRFETGRLARQAAGSAVAYLDDDTMVLSATTASKNPKDQLDFFPLTVDVEERMYAAGKIPGSFFRREGRPSEDAILTCRLIDRPLRPSFKKGLRNEIQVVATIMALNPDHLYDVVAINAASASTQLAGLPFSGPIGGVRVALIRGQWVAFPTHTELEDAVFDMVVAGRVLEDGDVAIMMVEAEATEKTIQLVKDGAEAPTEEVVAAGLDAAKPFIKVLCKAQADLAAKAAKPTGEFPVFLDYQDDVLEALSAAVRPELSAALTIAGKQDREAELDRVKALAAEKLLPEFEGREKEISAAYRALTKSLVRERVIAEKKRIDGRGVTDIRTLAAEVEAIPRVHGSALFERGETQILGVTTLNMLRMEQQLDTLSPVTRKRYMHNYNFPPYSVGETGRVGSPKRREIGHGALAERAIVPVLPTREEFPYAIRQVSEALGSNGSTSMGSVCASTMSLLNAGVPLKAPVAGIAMGLISQEINGETHYVALTDILGAEDAFGDMDFKVAGTKEFVTALQLDTKLDGIPASVLAAALKQARDARLHILDVMMEAIDTPDEMSPNAPRIITVKIPVDKIGEVIGPKRQMINQIQEDTGAEITIEDDGTIYIGAADGPAAEAARATINGIANPTSPEVGERILGSVVKTTTFGAFVSLLPGKDGLLHISQIRKLAGGKRVENVEDVLGVGQKVQVEIAEIDSRGKLSLIPVIEGEEAASDEKKDDAEQ”, the “soluble on expression in E. coli” value is reported as “soluble”.
For “DVQLQESGPGLVKPSQSLSLTCTVTGYSITSLYAWNWIRQFPGNKLEWMGYINYSGYTSYNPSLKSRISITRDTSKNQFFLQLHSVTTEDTATYSCTRGVDYFAMDYWGQGASVTVSSAKTTAPSVYPLAPVCGDTTGSSVTLGCLVKGYFPEPVTLTWNSGSLSSGVHTFPALLQSDLYTLSSSVTVTSNTWPSQSITCNVAHPASSTKVDKKIVPRD”, the “soluble on expression in E. coli” value was “soluble”.
For “MGSDKIHHHHHHMRLDTLSKTGGGVQEALSGSVRLYSEVLNREVEVPETPRRIVSLSPAITETLYMLGLEDRIAGVSVYDHKPPKAREKPKVGSYYKVNMKLLEQLNPDLILVTTGAQRRILEDLSRRYPVYPIPLPVSVSGIIDQAVQVGIVTGALEEASRLETELLDKASKLRGAGRGLRIYYEVYLGGPVTAGAHTYISDAFRIAGVETPFMSERTTWIYQPPPERINRFKPQFILYEYSAYAPTTAEKVRGELEARGVDVGSAELVLLEPDTLAHYGPSFIDTMLDLLKTLRDKAGLG”, the “soluble on expression in E. coli” value was “not soluble”.
For “MRRVETDSTGQIEVDNDKYWGAQTQRSIEHFSIGSDLMPIEVIKALAIIKKAAAITNHQLGILARTKKEIIIKVADEIIAGELDEHFPLRVLMTGSGTQSNMNVNEVISNRAIELLGGKKGSKNPIHPNDDVNMSQSSNDTFPSAMYIATALEINNRLLPALEYMQQQLADKAKQWDDIVKIGRTHMQDAVPLTLGQEFSGYAALLENNIQRIKDTLKYVYQLALGGTAVGTGLNAPDGFAEITAKYIATITSLAFVSATNKFEVQGSHDALVAVMGQLKTLANSLFKIANDIRLLSCGPRAGFHELLIPENEPGSSIMPGKVNPTQCEAMAMVAAQVIGYDVAVGIGGSAGYLEMNVYKPLIIFNIIQSIKIISDSCVNFTKYLLEGMKPNHDKIEFYLKNSLMLVTALSPVIGYDKAAKLAHYAEQKNISLAEANQELKFLSKEEFDKVVDPYKMTKGGIL”, the “soluble on expression in E. coli” value was “not soluble”.
With “MFRSVLVEAAVRVESPLLAHRLEDALLHACKQRFCSRILPSLGVCLTALRICKLVDGAGKQLALEIWPVEVSGGGLRARVHVELLLWSPLPHELAFAQVRSCSRFGIRLSILNGFDYAFVPPGSMPEPCTYHEEQRCWSWRFNEDDFVIGEGDWVRVLIERVEYATDSAMATFDSPGTVGSGPPLHILPPPVPVGRTVMETDQANATPGAHPEHAPPLETEPPEFWETPSILPLRVWARLDAPGLGPIDWWS” the “soluble on expression in E. coli” value was “not soluble”.
In the case of “MARKLFTPITIKDMTLKNRIVMSPMCMYSSHEKDGKLTPFHMAHYISRAIGQVGLIIVEASAVNPQGRITDQDLGIWSDEHIEGFAKLTEQVKEQGSKIGIQLAHAGRKAELEGDIFAPSAIAFDEQSATPVEMSAEKVKETVQEFKQAAARAKEAGFDVIEIHAAHGYLIHEFLSPLSNHRTDEYGGSPENRYRFLREIIDEVKQVWDGPLFVRVSASDYTDKGLDIADHIGFAKWMKEQGVDLIDCSSGALVHADINVFPGYQVSFAEKIREQADMATGAVGMITDGSMAEEILQNGRADLIFIGRELLRDPFFARTAAKQLNTEIPAPVQYERGW”, the “soluble on expression in E. coli” value is reported as “soluble”.
With “GAHTVDKRFGMDFKEIELIGSGGFGQVFKAKHRIDGKTYVIKRVKYNNEKAEREVKALAKLDHVNIVHYNGCWDGFDYDPETSSKNSSRSKTKCLFIQMEFCDKGTLEQWIEKRRGEKLDKVLALELFEQITKGVDYIHSKKLINRDLKPSNIFLVDTKQVKIGDFGLVTSLKNDGKRTRSKGTLRYMSPEQISSQDYGKEVDLYALGLILAELLHVCDTAFETSKFFTDLRDGIISDIFDKKEKTLLQKLLSKKPEDRPNTSEILRTLTVWKKSPEKNERHTA” the “soluble on expression in E. coli” value was “soluble”.
For “LRVRKAIIPAAGLGTRFLPATKAQPKEMLPIVDKPTIQYIVEEAIKSGIEDIIIISGRSKRAIEDHFDKSYELEQELEKKGNHDLLKLVQDISNLANIHYIRQKEAKGLGHAIYCAKSFIGNEPFAVLLGDDIVDSEVPCIKQLMDVYDKYRTTVLGVQKVPEDQVSKYGIVGGEIVSDRVYKVKDLVEKPDTASAPSNIAILGRYIITPRIFDYLENAKPGKGGEIQLTDALRELMGEEEMYAYDFIGKRYDVGNKLGFLQATVEFALARDDLKEEFEAYLKEIICKL”, the “soluble on expression in E. coli” value was “soluble”.
For “MGSDKIHHHHHHMITCQMIHKTYAAGHGERKVLRGLDFAISRGEHVGFLGRNGAGKTTLIKLLGGVEFPTAGTIRRRMTVSWPLGFGGGFQGSLTGYDNARFIARIYGMSYRDIADFVEDFTELGRQLRAPVKTYSQGMRARLAFALSMAIEFDCYLVDEVILVGDHRFHEKCRLELFGKRSDRALILASHNAALIREHCTRAMVLHDGRGTMHDDIDLALRHYEAL”, the “soluble on expression in E. coli” value was “not soluble”.
In the case of “QETGISMIGERTNSNGSKAFREAMLSGDWEKCVDIAKQQTRDGAHMLDLCVDYVGRDGTADMATLAALLATSSTLPIMIDSTEPEVIRTGLEHLGGRSIVNSVNFEDGDGPESRYQRIMKLVKQHGAAVVALTIDEEGQARTAEHKVRIAKRLIDDITGSYGLDIKDIVVDCLTFPISTGQEETRRDGIETIEAIRELKKLYPEIHTTLGLSNISFGLNPAARQVLNSVFLNECIEAGLDSAIAHSSKILPMNRIDDRQREVALDMVYDRRTEDYDPLQEFMQLFEGVSAAD”, the “soluble on expression in E. coli” value is reported as “not soluble”.
In the case of “MANSETSLQARLWKTLSQSPDVRLWRNNVGTCKAADGRFVRFGLCPGSSDLIGLTRVTITPDMVGQTIALFTAIEVKTPTGRVTPEQQSFIDFVQRSGGRAGVARSMQDANKIISGEGHVLEHHHHHH”, the “soluble on expression in E. coli” value is reported as “not soluble”.
